Laboratory results from patent US6927041B2, “Human neuropeptide Y-like G protein-coupled receptor” (Bayer Corporation, priority 2000, dated 2005).
Where no end group is shown, it is not given here.

Target: T1, human NPY-like GPCR (Homo sapiens, UniProt Q96P65)
T1 construct: expressed in transfected cells; host or cells: HEK293 (human embryonic kidney 293) cells, membrane preparation
T1 sequence (Q96P65 1-431): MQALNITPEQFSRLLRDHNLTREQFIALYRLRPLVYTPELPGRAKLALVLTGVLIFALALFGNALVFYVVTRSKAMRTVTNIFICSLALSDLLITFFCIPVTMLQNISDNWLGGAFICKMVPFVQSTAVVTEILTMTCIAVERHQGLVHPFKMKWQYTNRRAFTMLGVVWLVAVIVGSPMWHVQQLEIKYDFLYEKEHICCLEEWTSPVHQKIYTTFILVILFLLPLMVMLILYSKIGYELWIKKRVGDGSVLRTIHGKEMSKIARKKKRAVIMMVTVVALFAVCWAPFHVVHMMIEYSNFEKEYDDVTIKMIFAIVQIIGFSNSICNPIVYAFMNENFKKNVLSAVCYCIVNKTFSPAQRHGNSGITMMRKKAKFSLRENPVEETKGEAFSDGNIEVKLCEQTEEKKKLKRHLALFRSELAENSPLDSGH
Assay: Binding affinity of known peptides for the human NPY-like GPCR
Conditions: human neuropeptide Y-like G protein-coupled receptor (SEQ ID NO:2); qualitative statement
Procedure: Human embryonic kidney 293 cells transfected with a polynucleotide that expresses human NPY-like GPCR are scraped from a culture flask into 5 ml of Tris HCl, 5 mM EDTA, pH 7.5, and lysed by sonication. Cell lysates are centrifuged at 1000 rpm for 5 minutes at 4° C. The supernatant is centrifuged at 30,000×g for 20 minutes at 4° C. The pellet is suspended in binding buffer containing 50 mM Tris HCl, 5 mM MgSO4, 1 mM EDTA, 100 mM NaCl, pH 7.5, supplemented with 0.1% BSA, 2 μg/ml aprotinin, […], and 10 μg/ml phosphoramidon. Optimal membrane suspension dilutions, defined as the protein concentration required to bind less than 10% of the added radioligand, are added to 96-well polypropylene microtiter plates containing ^125I-labeled ligand or test compound, non-labeled peptides, and binding buffer to a final volume of 250 μl.
In equilibrium saturation binding assays, membrane preparations are incubated in the presence of increasing concentrations (0.1 nM to 4 nM) of ^125I-labeled ligand or test compound (specific activity 2200 Ci/mmol). The binding affinities of different test compounds are determined in equilibrium competition binding assays, using 0.1 nM ^125I-peptide in the presence of twelve different concentrations of each test compound.
Binding reaction mixtures are incubated for one hour at 30° C. […] Radioactivity is measured by scintillation counting, and data are analyzed by a computerized non-linear regression program.
Non-specific binding is defined as the amount of radioactivity remaining after incubation of membrane protein in the presence of 100 nM of unlabeled peptide. Protein concentration is measured by the Bradford method using Bio-Rad Reagent, with bovine serum albumin as a standard. A test compound which […] the radioactivity of membrane protein by at least 15% relative to radioactivity of membrane protein that was not incubated with a test compound is identified as a compound which binds to a human NPY-like GPCR polypeptide.

binding affinity for the receptor | Substance
do not appear to have binding affinity | Neuropeptide Y
do not appear to have binding affinity | orexin-A (QPLPDCCRQKTCSCRLYELLHGAGNHAAGILTL; ends and bridges not checked; cysteine pairing not given here; UniProt O43612 34-66, looked up)
do not appear to have binding affinity | peptide YY: peptide that stimulates the Y1 receptor
